Changes are numbered by the printed parent chain.

Data on 1 molecule can be found in paper PMC12170172, “Initiation of ERAD by the bifunctional complex of Mnl1/Htm1 mannosidase and protein disulfide isomerase” (Nature Structural & Molecular Biology, 2025).

Common to all, as to conditions: both partners purified
One experiment has as its target T1, Mnl1 mCTD–FLAG (S. cerevisiae, UniProt P38888 21-796, L655N | F770Y | M772K).
T1 construct: Mnl1 (Htm1) of S. cerevisiae with three hydrophobic residues of the CTD groove changed to hydrophilic ones; source: S. cerevisiae, overexpressed together with Pdi1, purified as a complex (anti-FLAG M2 resin, Superdex 200); not shown: FLAG, C-terminal, kept
T1 sequence (looked up): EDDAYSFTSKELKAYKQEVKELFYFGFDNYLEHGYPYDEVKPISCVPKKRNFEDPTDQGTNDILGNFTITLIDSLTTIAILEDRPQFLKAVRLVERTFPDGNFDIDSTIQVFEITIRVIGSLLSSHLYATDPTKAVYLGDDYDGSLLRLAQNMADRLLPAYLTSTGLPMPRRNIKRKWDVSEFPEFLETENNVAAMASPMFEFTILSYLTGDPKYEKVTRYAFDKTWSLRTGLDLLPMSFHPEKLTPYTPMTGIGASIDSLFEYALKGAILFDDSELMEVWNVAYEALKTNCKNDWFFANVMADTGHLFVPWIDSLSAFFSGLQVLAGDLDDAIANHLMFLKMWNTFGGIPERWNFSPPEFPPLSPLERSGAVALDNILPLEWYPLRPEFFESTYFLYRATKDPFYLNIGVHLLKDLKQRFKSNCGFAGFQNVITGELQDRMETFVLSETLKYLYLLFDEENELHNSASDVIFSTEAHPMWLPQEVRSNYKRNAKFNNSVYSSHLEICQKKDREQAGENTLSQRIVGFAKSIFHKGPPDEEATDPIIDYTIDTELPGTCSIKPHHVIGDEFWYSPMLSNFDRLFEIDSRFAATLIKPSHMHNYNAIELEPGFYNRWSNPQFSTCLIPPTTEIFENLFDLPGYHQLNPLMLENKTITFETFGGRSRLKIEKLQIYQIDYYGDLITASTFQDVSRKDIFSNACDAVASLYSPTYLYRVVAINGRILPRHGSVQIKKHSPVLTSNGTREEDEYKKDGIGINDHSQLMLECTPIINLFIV
In words: cross-linking; competition: RBΔS, RBun or RBsc incubated with Mnl1–Pdi1 complex at the indicated molar ratios (tenfold excess in Fig. 6) in 25 mM HEPES pH 7.4, 150 mM NaCl, 0.1% Nonidet P-40, 2 mM CaCl2, 30 °C 30 min; then DPS 30 °C 30 min, N-ethylmaleimide; SDS-PAGE, Coomassie blue.

For a further experiment, the target named is T2, Mnl1–FLAG (S. cerevisiae, UniProt P38888 21-796).
T2 construct: Mnl1 (Htm1), luminal ER mannosidase of S. cerevisiae; MHD amino acids 29–514, loop 515–650, CTD 651–796; called 'Full-length' against Mnl1ΔC; The end of the FLAG tag is stated for the GAL1 plasmid; also called Htm1; FLAG-tagged Mnl1; not shown: FLAG, C-terminal, kept
T2 sequence (looked up): T1 sequence (looked up) with N635L, Y750F, K752M
The experiment is described as follows: cryo-EM structure; Mnl1–FLAG–Pdi1 complex at 1 mg/ml, purified from detergent-treated yeast membranes with anti-FLAG beads and by size-exclusion chromatography as a 1:1 complex; 25 mM HEPES pH 7.4, 150 mM NaCl. For orientation: Size exclusion chromatography separates by hydrodynamic size, large species first.

A further experiment has as its target T3, Mnl1 (C579S)–FLAG (S. cerevisiae, UniProt P38888 21-796, C579S).
T3 construct: Mnl1 (Htm1) of S. cerevisiae with a substituted loop cysteine; source: S. cerevisiae, overexpressed together with Pdi1, purified as a complex (anti-FLAG M2 resin, Superdex 200); not shown: FLAG, C-terminal, kept
T3 sequence (looked up): T1 sequence (looked up) with C559S, N635L, Y750F, K752M
The experiment is described as follows: cross-linking; purified complexes of Pdi1 with wild-type or mutant Mnl1 incubated with increasing concentrations of DPS (2,2′-dipyridyldisulfide) to induce disulfides; non-reducing SDS-PAGE, Coomassie blue.

B1: Pdi1 (protein disulfide isomerase) (enzyme, S. cerevisiae, UniProt P17967 29-522, looked up)
chain: PEDSAVVKLATDSFNEYIQSHDLVLAEFFAPWCGHCKNMAPEYVKAAETLVEKNITLAQIDCTENQDLCMEHNIPGFPSLKIFKNSDVNNSIDYEGPRTAEAIVQFMIKQSQPAVAVVADLPAYLANETFVTPVIVQSGKIDADFNATFYSMANKHFNDYDFVSAENADDDFKLSIYLPSAMDEPVVYNGKKADIADADVFEKWLQVEALPYFGEIDGSVFAQYVESGLPLGYLFYNDEEELEEYKPLFTELAKKNRGLMNFVSIDARKFGRHAGNLNMKEQFPLFAIHDMTEDLKYGLPQLSEEAFDELSDKIVLESKAIESLVKDFLKGDASPIVKSQEIFENQDSSVFQLVGKNHDEIVNDPKKDVLVLYYAPWCGHCKRLAPTYQELADTYANATSDVLIAKLDHTENDVRGVVIEGYPTIVLYPGGKKSESVVYQGSRSLDSLFDFIKENGHFDVDGKALYEEAQEKAAEEADADAELADEEDAIHDEL
notes: Pdi1, protein disulfide isomerase of S. cerevisiae, untagged; Trx domains a, b, b′ and a′; amino acids 24–500 could be modelled; source: S. cerevisiae, overexpressed together with Mnl1–FLAG (GAL1 promoter), purified as a complex
Regarding B1, the binding result with Mnl1 mCTD–FLAG and with Mnl1 (C579S)–FLAG was “binds” each time. The “stoichiometry N” value in the experiment with Mnl1–FLAG was determined as 1.

In general, stoichiometry N refers to a count of units in the complex or per binding partner.
